Source: the supplement of paper PMC10724198
± gives the standard deviation of the averaged measurements.

Experiments:
Saccharomyces cerevisiae [1] = assay: protein stability index of tFT-peptide fusion (C-terminal peptide) (PSI (0-1 scale)); higher = more stable (slower turnover); details: genetic background: wild type; temperature: 30 C
Saccharomyces cerevisiae [2] = assay: as above
Protocol: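 MPS profiling in S. cerevisiae of the tFT-X12 degron library: putative degron peptides plus stable controls, 12 aa, fused to the C-terminus of a sfGFP-mCherry timer. Cells are FACS-sorted into 8 mCherry/sfGFP bins and deep-sequenced. PSI runs from 0 (unstable) to 1 (stable). Backgrounds are wild type, das1Δ and doa10Δ at 30 °C, and wild type, das1Δ, cdc34-1 and cdc53-1 at 37 °C; 2-3 technical replicates each.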

[3] = genetic background: cdc34-1, temperature: 37 C
[4] = genetic background: cdc53-1, temperature: 37 C
[5] = genetic background: das1 deletion, temperature: 30 C
[6] = genetic background: das1 deletion, temperature: 37 C
[7] = genetic background: doa10 deletion, temperature: 30 C
[8] = genetic background: wild type, temperature: 30 C
[9] = genetic background: wild type, temperature: 37 C
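Further: PSI is a weighted mean of sequencing reads over stability bins, variants kept only with over 10 reads, mCherry proximal and sfGFP distal, peptide attached via GGGS linker.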

| Sequence | protein stability index (Saccharomyces cerevisiae [1]) | protein stability index (Saccharomyces cerevisiae [2]; [3]) | protein stability index (Saccharomyces cerevisiae [2]; [4]) | protein stability index (Saccharomyces cerevisiae [2]; [5]) | protein stability index (Saccharomyces cerevisiae [2]; [6]) | protein stability index (Saccharomyces cerevisiae [2]; [7]) | protein stability index (Saccharomyces cerevisiae [2]; [8]) | protein stability index (Saccharomyces cerevisiae [2]; [9]) |
| --- | --- | --- | --- | --- | --- | --- | --- | --- |
| VGVIGWGVLGVG | 0.5 ± 0.01 | 0.475 ± 0.04 | 0.548 ± 0.0055 | 0.481 ± 0.011 | 0.541 ± 0.011 | 0.4866 ± 0.00011 | 0.481 ± 0.013 | 0.536 ± 0.0097 |
| VGVVGVRVLVVV | 0.2026 ± 0.0015 | 0.0407 ± 0.0012 | 0.1 ± 0.018 | 0.166 ± 0.032 | 0.19025 ± 0.00017 | 0.142 ± 0.01 | 0.154 ± 0.024 | 0.17315 ± 8e-05 |
| VIGSFVRVFGIM | 0.512 ± 0.12 | 0.698 ± 0.024 | 0.751 ± 0.018 | 0.617 ± 0.017 | 0.728 ± 0.026 | 0.489 ± 0.041 | 0.506 ± 0.0097 | 0.6657 ± 0.00035 |
| VILMFELFGVRI | 0.331 ± 0.029 | 0.324 ± 0.04 | 0.457 ± 0.019 | 0.355 ± 0.058 | 0.4304 ± 0.0029 | 0.327 ± 0.019 | 0.313 ± 0.051 | 0.422 ± 0.054 |
| VLCHLVLYVGDK | 0.4359 ± 0.0017 | 0.454 ± 0.013 | 0.569 ± 0.022 | 0.383 ± 0.035 | 0.588 ± 0.013 | 0.3413 ± 0.0027 | 0.397 ± 0.052 | 0.534 ± 0.029 |
| VLDLLRHGFLWQ | 0.761 ± 0.071 | 0.686 ± 0.051 | 0.736 ± 0.0032 | 0.706 ± 0.024 | 0.727 ± 0.011 | 0.689 ± 0.017 | 0.6984 ± 0.0056 | 0.7119 ± 0.0068 |
| VLFFVLGVLVCL | 0.397 ± 0.043 | 0.319 ± 0.019 | 0.429 ± 0.019 | 0.348 ± 0.027 | 0.471 ± 0.01 | 0.319 ± 0.021 | 0.338 ± 0.019 | 0.441 ± 0.026 |
| VLFIKKTLMRIQ | 0.396 ± 0.0084 | 0.558 ± 0.008 | 0.685 ± 0.0057 | 0.621 ± 0.0064 | 0.66 ± 0.015 | 0.268 ± 0.025 | 0.331 ± 0.027 | 0.537 ± 0.045 |
| VLFVLFASWFPR | 0.487 ± 0.0066 | 0.453 ± 0.023 | 0.4772 ± 0.002 | 0.375 ± 0.027 | 0.5458 ± 0.0053 | 0.3679 ± 0.0025 | 0.361 ± 0.024 | 0.529 ± 0.047 |
| VLFVVLVASGLG | 0.299 ± 0.023 | 0.215 ± 0.015 | 0.312 ± 0.007 | 0.204 ± 0.032 | 0.4008 ± 0.00043 | 0.163 ± 0.01 | 0.206 ± 0.026 | 0.4012 ± 0.0037 |
| VLPQSVWILVRV | 0.2609 ± 0.0026 | 0.0621 ± 0.016 | 0.0737 ± 0.0062 | 0.172 ± 0.024 | 0.236 ± 0.012 | 0.144 ± 0.021 | 0.155 ± 0.032 | 0.1936 ± 0.0014 |
| VLSFWAFLFLLF | 0.335 ± 0.011 | 0.428 ± 0.012 | 0.412 ± 0.026 | 0.398 ± 0.023 | 0.488 ± 0.015 | 0.31 ± 0.013 | 0.282 ± 0.0089 | 0.3785 ± 0.0022 |
| VLSWRAWGESGV | 0.445 ± 0.024 | 0.387 ± 0.02 | 0.426 ± 0.015 | 0.466 ± 0.032 | 0.392 ± 0.014 | 0.493 ± 0.03 | 0.468 ± 0.011 | 0.382 ± 0.007 |
| VMFWRGVWLSFC | 0.268 ± 0.03 | 0.313 ± 0.036 | 0.361 ± 0.049 | 0.45 ± 0.019 | 0.572 ± 0.03 | 0.23 ± 0.0033 | 0.197 ± 0.016 | 0.335 ± 0.011 |
| VNTRIVVRMRHL | 0.433 ± 0.014 | 0.638 ± 0.056 | 0.701 ± 0.015 | 0.64 ± 0.014 | 0.704 ± 0.02 | 0.339 ± 0.0049 | 0.348 ± 0.013 | 0.529 ± 0.0082 |
| VNWGFLVLLFQL | 0.324 ± 0.011 | 0.446 ± 0.017 | 0.513 ± 0.025 | 0.39 ± 0.035 | 0.561 ± 0.018 | 0.219 ± 0.029 | 0.25 ± 0.021 | 0.4111 ± 0.00064 |
| VPLHPPPTVPYI | 0.704 ± 0.03 | 0.674 ± 0.063 | 0.728 ± 0.014 | 0.66 ± 0.015 | 0.7244 ± 0.0069 | 0.679 ± 0.011 | 0.675 ± 0.034 | 0.7038 ± 0.0066 |
| VPLVQRARLRLF | 0.146 ± 0.025 | 0.639 ± 0.059 | 0.715 ± 0.02 | 0.607 ± 0.027 | 0.732 ± 0.026 | 0.109 ± 0.015 | 0.114 ± 0.012 | 0.206 ± 0.028 |
| VPRLFSVIVVPV | 0.488 ± 0.052 | 0.517 ± 0.04 | 0.5325 ± 0.0033 | 0.39 ± 0.033 | 0.5519 ± 0.0049 | 0.359 ± 0.012 | 0.389 ± 0.03 | 0.536 ± 0.018 |
| VRFRLLNVLASA | 0.468 ± 0.056 | 0.528 ± 0.0073 | 0.518 ± 0.048 | 0.395 ± 0.026 | 0.5582 ± 0.0043 | 0.34 ± 0.015 | 0.389 ± 0.021 | 0.5305 ± 0.0031 |
| VRGSFRRCLSIA | 0.1981 ± 0.0011 | 0.596 ± 0.011 | 0.713 ± 0.021 | 0.623 ± 0.015 | 0.719 ± 0.012 | 0.118 ± 0.027 | 0.142 ± 0.017 | 0.325 ± 0.011 |
| VRRSVGGWSKVG | 0.339 ± 0.022 | 0.638 ± 0.011 | 0.724 ± 0.023 | 0.636 ± 0.029 | 0.7327 ± 0.0047 | 0.158 ± 0.023 | 0.194 ± 0.037 | 0.505 ± 0.013 |
| VRSTFVLGRWFA | 0.228 ± 0.062 | 0.57 ± 0.0089 | 0.711 ± 0.0072 | 0.653 ± 0.029 | 0.7495 ± 0.0021 | 0.133 ± 0.0064 | 0.159 ± 0.018 | 0.312 ± 0.083 |
| VSFHFLLLVPCC | 0.105 ± 0.082 | 0.0285 ± 0.0095 | 0.0251 ± 0.0019 | 0.0609 ± 0.027 | 0.0732 ± 0.023 | 0.044 ± 0.0035 | 0.0565 ± 0.02 | 0.0701 ± 0.0096 |
| VSFHLGVIFALS | 0.39 ± 0.0086 | 0.547 ± 0.018 | 0.5268 ± 0.0037 | 0.401 ± 0.026 | 0.536 ± 0.0072 | 0.268 ± 0.0063 | 0.343 ± 0.021 | 0.46 ± 0.013 |
| VSFLLLSYLCSF | 0.266 ± 0.012 | 0.341 ± 0.0084 | 0.389 ± 0.01 | 0.279 ± 0.031 | 0.46 ± 0.011 | 0.172 ± 0.0023 | 0.187 ± 0.019 | 0.322 ± 0.0035 |
| VSWDMLYFWFIQ | 0.416 ± 0.002 | 0.664 ± 0.089 | 0.693 ± 0.041 | 0.603 ± 0.059 | 0.764 ± 0.033 | 0.307 ± 0.017 | 0.304 ± 0.028 | 0.554 ± 0.016 |
| VSYAVIVLVFKG | 0.329 ± 0.037 | 0.211 ± 0.056 | 0.317 ± 0.051 | 0.234 ± 0.026 | 0.463 ± 0.018 | 0.2 ± 0.022 | 0.22 ± 0.023 | 0.339 ± 0.04 |
| VTVWLISRVTGL | 0.435 ± 0.0085 | 0.579 ± 0.034 | 0.67938 ± 0.00055 | 0.496 ± 0.017 | 0.647 ± 0.017 | 0.286 ± 0.035 | 0.314 ± 0.01 | 0.549 ± 0.018 |
| VVCFGCLAFFLG | 0.497 ± 0.0057 | 0.579 ± 0.0076 | 0.613 ± 0.011 | 0.461 ± 0.021 | 0.624 ± 0.044 | 0.412 ± 0.043 | 0.409 ± 0.028 | 0.533 ± 0.027 |
